Measured values: patent US20090169570A1 (BIOTEST, published 2009)
Where “and” joins values, the source holds several entries; their conditions need not be identical. Identical values can stand only once.

T1: CD138 expressed on the cell surface (OPM-2, MOLP-8 cells) (human, UniProt P18827 23-310)
T1 sequence (looked up): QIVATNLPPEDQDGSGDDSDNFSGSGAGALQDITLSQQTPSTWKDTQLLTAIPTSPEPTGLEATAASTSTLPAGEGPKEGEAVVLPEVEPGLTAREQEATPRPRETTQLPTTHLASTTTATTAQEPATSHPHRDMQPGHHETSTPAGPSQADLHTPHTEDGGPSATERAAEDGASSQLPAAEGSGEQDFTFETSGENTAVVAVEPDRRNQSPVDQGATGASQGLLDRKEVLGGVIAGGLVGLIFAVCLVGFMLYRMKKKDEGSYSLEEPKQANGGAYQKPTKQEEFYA

T2: Soluble CD138 antigen from U-266 cell culture supernatant, biotinylated (human, UniProt P18827 23-245, limits assumed, biotinylated on primary amino groups with Sulfo-NHS-LC-Biotin)
T2 construct: This is the soluble form in the supernatant of the human MM cell line U-266; also called bCD138; biotinylated CD138
T2 sequence (looked up): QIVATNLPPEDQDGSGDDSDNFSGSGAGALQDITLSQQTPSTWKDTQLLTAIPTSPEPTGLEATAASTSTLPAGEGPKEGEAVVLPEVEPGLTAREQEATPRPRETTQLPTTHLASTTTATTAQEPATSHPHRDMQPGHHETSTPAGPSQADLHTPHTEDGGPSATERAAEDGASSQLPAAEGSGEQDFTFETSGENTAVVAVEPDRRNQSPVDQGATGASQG


What was measured:
[1] = target: T1, CD138 expressed on the cell surface …; assay: cell-based or functional assay
[2] = target: T1, CD138 expressed on the cell surface …; assay: FACS on CD138+ OPM-2 cells, fluorescence-labeled secondary antibody, mean fluorescence against concentration
Description: The mean fluorescence measured in these experiments was plotted against the antibody concentration.
In FIG. 6, the mean fluorescences as measure for the amount of cell bound antibody is plotted against different antibody or conjugate concentrations.

[3] = target: T2, Soluble CD138 antigen from U-266 cell …; assay: SPR (BIACORE C), biotinylated soluble CD138 on streptavidin chip, conjugate as analyte at 3.13-100 nM
Description: (§1) The unbound biotinylation reagent was removed using protein desalting columns. Immobilization of bCD138 The sensorchip (SENSOR CHIP SA, BIACORE AB) used in the BIACORE assay is designed to bind biotinylated molecules for interaction analysis in BIACORE systems. The surface consists of a carboxymethylated dextran matrix pre-immobilized with streptavidin and ready for high-affinity capture of biotinylated ligands. Immobilization of bCD138 was performed on SENSOR CHIP SA using a flow rate of 10 μL/min by manual injection. The chip surface was conditioned with three consecutive 1-minute injections of 1 M NaCl in 50 mM NaOH.
(§2) The software of BIACORE C uses pre-defined masks, so called “Wizards” for different experiments where only certain settings can be changed. As the BIACORE C was originally developed to measure concentrations, there is no wizard designed to carry out affinity measurements. […] With this wizard, two flow cells were measured and the dissociation phase was set to 90 s by performing the “Regeneration 1” with BIACORE running buffer. […] The dissociation equilibrium constants were determined by calculating the rate constants ka and kd. Afterwards, the KD-values of the analytes were calculated by the quotient of kd and ka with the BIAevaluation software.

[4] = target: T2, Soluble CD138 antigen from U-266 cell …; assay: SPR (BIACORE C), mean of three independent experiments, biotinylated soluble CD138 on streptavidin chip
Description: as §1, §2

Row | Binder | EC50 (read off the curve) [2] [nM] | further results
1 | nBT062-SPDB-DM4 (antibody, human IgG4, kappa, V domains shown, maytansinoid DM4 attached via SPDB (disulfide) linker; attachment residues and chain not stated) VH: QVQLQQSGSELMMPGASVKISCKATGYTFSNYWIEWVKQRPGHGLEWIGEILPGTGRTIYNEKFKGKATFTADISSNTVQMQLSSLTSEDSAVYYCARRDYYGNFYYAMDYWGQGTSVTVSS VL: DIQMTQSTSSLSASLGDRVTISCSASQGINNYLNWYQQKPDGTVELLIYYTSTLQSGVPSRFSGSGSGTDYSLTISNLEPEDIGTYYCQQYSKLPRTFGGGTKLEIKR |  | IC50 (read off the curve); surviving fraction of MOLP-8 cells (WST viability assay, 5 days), curve 'w/o blocking' [1]: ~0.08 nM
2 | nBT062-SMCC-DM1 (antibody, human IgG4, kappa, V domains shown, maytansinoid DM1 attached via SMCC (non-cleavable) linker; attachment residues and chain not stated; average of 3.5 DM1 per antibody stated for nBT062-DM1) VH: QVQLQQSGSELMMPGASVKISCKATGYTFSNYWIEWVKQRPGHGLEWIGEILPGTGRTIYNEKFKGKATFTADISSNTVQMQLSSLTSEDSAVYYCARRDYYGNFYYAMDYWGQGTSVTVSS VL: DIQMTQSTSSLSASLGDRVTISCSASQGINNYLNWYQQKPDGTVELLIYYTSTLQSGVPSRFSGSGSGTDYSLTISNLEPEDIGTYYCQQYSKLPRTFGGGTKLEIKR | ~1 | 
3 | nBT062 (antibody, human IgG4, kappa, V domains shown, also called cB-B4; chimeric B-B4) VH: QVQLQQSGSELMMPGASVKISCKATGYTFSNYWIEWVKQRPGHGLEWIGEILPGTGRTIYNEKFKGKATFTADISSNTVQMQLSSLTSEDSAVYYCARRDYYGNFYYAMDYWGQGTSVTVSS VL: DIQMTQSTSSLSASLGDRVTISCSASQGINNYLNWYQQKPDGTVELLIYYTSTLQSGVPSRFSGSGSGTDYSLTISNLEPEDIGTYYCQQYSKLPRTFGGGTKLEIKR | ~1 | 
4 | B-B4-SPP-DM1 (antibody, V domains shown, maytansinoid DM1 attached via SPP (disulfide) linker; attachment residues and chain not stated, the variable domain limits are inferred as for B-B4) VH: QVQLQQSGSELMMPGASVKISCKATGYTFSNYWIEWVKQRPGHGLEWIGEILPGTGRTIYNEKFKGKATFTADISSNTVQMQLSSLTSEDSAVYYCARRDYYGNFYYAMDYWGQGTSVTVSS VL: DIQMTQSTSSLSASLGDRVTISCSASQGINNYLNWYQQKPDGTVELLIYYTSTLQSGVPSRFSGSGSGTDYSLTISNLEPEDIGTYYCQQYSKLPRTFGGGTKLEIK |  | Kd [3]: 2.6 nM and 2.7 nM; Kd [4]: 2.6 nM
5 | nBT062-SPP-DM1 (antibody, human IgG4, kappa, V domains shown, maytansinoid DM1 attached via SPP (disulfide) linker; attachment residues and chain not stated; average of 3.5 DM1 per antibody stated for nBT062-DM1) VH: QVQLQQSGSELMMPGASVKISCKATGYTFSNYWIEWVKQRPGHGLEWIGEILPGTGRTIYNEKFKGKATFTADISSNTVQMQLSSLTSEDSAVYYCARRDYYGNFYYAMDYWGQGTSVTVSS VL: DIQMTQSTSSLSASLGDRVTISCSASQGINNYLNWYQQKPDGTVELLIYYTSTLQSGVPSRFSGSGSGTDYSLTISNLEPEDIGTYYCQQYSKLPRTFGGGTKLEIKR | ~1 | 
